Measurements reported in the supplement of paper PMC10065799, “High-throughput profiling of sequence recognition by tyrosine kinases and SH2 domains using bacterial peptide display” (eLife, 2023).

Tests used:
AncSZ = test: phosphorylation enrichment, bacterial display (enrichment ratio); higher = better substrate or ligand; peptides without Tyr show the background
EPHB1 = EPHB1 (UniProt P54762); test: as above
EPHB2 = EPHB2 (UniProt P29323); test: as above
FGFR1 = FGFR1 (UniProt P11362); test: as above
FGFR3 = FGFR3 (UniProt P22607); test: as above
Fer (mouse) = test: as above
Fes = Fes (UniProt P07332); test: as above
Chain of Fes (P07332 whole entry, looked up): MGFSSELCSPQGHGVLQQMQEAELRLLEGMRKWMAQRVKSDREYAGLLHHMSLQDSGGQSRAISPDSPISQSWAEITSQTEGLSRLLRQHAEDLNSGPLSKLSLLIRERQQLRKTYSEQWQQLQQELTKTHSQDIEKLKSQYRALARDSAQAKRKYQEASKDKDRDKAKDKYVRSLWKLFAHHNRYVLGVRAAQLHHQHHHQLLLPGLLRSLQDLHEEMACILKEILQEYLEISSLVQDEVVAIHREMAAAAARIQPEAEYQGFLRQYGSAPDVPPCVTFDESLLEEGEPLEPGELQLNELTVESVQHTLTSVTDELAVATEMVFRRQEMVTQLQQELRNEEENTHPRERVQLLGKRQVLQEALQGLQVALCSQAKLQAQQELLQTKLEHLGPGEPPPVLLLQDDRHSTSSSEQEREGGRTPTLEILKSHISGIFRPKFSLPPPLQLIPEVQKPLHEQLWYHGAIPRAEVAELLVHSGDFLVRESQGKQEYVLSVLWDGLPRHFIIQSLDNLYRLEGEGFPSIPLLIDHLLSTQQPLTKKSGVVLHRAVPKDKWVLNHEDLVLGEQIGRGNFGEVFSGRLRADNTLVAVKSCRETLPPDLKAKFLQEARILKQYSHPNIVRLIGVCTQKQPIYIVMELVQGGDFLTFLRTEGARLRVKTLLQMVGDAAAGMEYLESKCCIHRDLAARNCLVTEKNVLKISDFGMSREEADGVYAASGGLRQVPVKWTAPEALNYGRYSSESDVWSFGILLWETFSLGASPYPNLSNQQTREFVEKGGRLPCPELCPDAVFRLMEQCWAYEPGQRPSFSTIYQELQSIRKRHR

Fyn = Fyn (UniProt P06241); test: as above
Chain of Fyn (P06241 whole entry, looked up): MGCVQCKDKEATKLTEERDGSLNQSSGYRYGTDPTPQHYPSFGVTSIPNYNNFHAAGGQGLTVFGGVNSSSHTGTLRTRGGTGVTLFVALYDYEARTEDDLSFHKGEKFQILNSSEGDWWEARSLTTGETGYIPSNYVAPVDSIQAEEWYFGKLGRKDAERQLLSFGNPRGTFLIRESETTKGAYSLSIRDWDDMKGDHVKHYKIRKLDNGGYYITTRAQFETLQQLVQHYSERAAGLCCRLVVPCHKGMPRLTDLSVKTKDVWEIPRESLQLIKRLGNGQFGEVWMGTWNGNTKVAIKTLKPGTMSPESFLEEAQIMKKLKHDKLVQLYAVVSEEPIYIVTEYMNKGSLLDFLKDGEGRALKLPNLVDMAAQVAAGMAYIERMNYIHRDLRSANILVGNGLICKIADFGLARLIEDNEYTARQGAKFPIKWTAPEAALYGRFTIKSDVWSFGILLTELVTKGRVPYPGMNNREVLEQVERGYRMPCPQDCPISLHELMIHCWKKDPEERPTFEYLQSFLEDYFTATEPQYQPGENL

Hck = Hck (UniProt P08631); test: as above
Chain of Hck (P08631 whole entry, looked up): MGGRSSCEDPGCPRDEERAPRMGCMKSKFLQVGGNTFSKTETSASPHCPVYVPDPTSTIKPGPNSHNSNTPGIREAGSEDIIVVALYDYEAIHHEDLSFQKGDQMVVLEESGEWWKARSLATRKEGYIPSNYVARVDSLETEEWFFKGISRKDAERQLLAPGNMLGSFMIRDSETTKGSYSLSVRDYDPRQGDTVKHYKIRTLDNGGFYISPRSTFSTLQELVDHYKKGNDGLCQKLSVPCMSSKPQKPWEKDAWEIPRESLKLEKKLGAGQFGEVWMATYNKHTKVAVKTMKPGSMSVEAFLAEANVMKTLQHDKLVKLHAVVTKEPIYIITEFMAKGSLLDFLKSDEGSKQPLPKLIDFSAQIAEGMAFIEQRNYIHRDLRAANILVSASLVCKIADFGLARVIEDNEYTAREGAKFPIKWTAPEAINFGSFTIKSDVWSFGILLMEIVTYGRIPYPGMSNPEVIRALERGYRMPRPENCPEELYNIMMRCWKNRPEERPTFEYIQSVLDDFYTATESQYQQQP

Jak2 = Jak2 (UniProt O60674); test: as above
MERTK = MERTK (UniProt Q12866); test: as above
Chain of MERTK (Q12866 whole entry, looked up): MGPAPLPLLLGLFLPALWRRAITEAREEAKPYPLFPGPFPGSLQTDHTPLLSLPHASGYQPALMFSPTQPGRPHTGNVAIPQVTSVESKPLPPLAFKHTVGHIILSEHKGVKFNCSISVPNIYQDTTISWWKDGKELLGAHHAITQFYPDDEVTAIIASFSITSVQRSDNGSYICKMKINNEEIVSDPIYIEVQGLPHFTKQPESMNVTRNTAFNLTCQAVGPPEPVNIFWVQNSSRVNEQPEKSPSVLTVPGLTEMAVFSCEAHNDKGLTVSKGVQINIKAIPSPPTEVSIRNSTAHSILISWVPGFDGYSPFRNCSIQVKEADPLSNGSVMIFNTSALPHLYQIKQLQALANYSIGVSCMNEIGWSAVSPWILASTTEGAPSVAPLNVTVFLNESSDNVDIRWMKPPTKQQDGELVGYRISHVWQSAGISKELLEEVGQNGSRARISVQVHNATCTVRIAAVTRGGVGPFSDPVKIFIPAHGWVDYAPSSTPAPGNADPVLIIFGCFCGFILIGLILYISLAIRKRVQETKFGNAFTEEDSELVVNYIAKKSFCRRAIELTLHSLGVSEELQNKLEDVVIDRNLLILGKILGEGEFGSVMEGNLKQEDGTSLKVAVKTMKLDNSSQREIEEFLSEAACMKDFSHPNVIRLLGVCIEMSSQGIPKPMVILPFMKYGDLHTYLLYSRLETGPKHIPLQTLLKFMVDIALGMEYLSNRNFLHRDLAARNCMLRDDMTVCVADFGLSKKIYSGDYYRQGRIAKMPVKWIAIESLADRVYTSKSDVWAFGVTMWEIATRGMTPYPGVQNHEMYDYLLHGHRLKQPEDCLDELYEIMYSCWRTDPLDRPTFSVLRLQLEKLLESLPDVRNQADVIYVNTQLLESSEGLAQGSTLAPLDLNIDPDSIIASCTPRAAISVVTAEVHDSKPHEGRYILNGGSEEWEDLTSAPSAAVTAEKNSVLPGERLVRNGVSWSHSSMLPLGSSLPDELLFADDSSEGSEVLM

c-Abl (mouse) = test: as above
c-Src = test: as above
Grb2 SH2 = Grb2 SH2 (UniProt P62993); test: SH2 binding enrichment of the phosphorylated peptide, bacterial display (enrichment ratio); higher = better substrate or ligand; peptides without Tyr show the background
SHP2-C SH2 = test: as above
c-Src SH2 = test: as above
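Wherever SH2 binding enrichment of the phosphorylated peptide, bacterial display is given: peptide library displayed on the E. coli surface as eCPX fusions, selected cells deep-sequenced, score is each peptide's frequency after selection divided by its frequency in the input.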
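Wherever phosphorylation enrichment, bacterial display is given: 11-residue human phosphosite peptides and single-mutation variants displayed on the E. coli surface, counted by deep sequencing, each peptide's frequency after selection divided by its frequency in the unselected input library; frequency after pTyr selection over input frequency; kinase dosed for 20-30% of maximal phosphorylation in three min.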

Chain of EPHB1 (P54762 whole entry, looked up): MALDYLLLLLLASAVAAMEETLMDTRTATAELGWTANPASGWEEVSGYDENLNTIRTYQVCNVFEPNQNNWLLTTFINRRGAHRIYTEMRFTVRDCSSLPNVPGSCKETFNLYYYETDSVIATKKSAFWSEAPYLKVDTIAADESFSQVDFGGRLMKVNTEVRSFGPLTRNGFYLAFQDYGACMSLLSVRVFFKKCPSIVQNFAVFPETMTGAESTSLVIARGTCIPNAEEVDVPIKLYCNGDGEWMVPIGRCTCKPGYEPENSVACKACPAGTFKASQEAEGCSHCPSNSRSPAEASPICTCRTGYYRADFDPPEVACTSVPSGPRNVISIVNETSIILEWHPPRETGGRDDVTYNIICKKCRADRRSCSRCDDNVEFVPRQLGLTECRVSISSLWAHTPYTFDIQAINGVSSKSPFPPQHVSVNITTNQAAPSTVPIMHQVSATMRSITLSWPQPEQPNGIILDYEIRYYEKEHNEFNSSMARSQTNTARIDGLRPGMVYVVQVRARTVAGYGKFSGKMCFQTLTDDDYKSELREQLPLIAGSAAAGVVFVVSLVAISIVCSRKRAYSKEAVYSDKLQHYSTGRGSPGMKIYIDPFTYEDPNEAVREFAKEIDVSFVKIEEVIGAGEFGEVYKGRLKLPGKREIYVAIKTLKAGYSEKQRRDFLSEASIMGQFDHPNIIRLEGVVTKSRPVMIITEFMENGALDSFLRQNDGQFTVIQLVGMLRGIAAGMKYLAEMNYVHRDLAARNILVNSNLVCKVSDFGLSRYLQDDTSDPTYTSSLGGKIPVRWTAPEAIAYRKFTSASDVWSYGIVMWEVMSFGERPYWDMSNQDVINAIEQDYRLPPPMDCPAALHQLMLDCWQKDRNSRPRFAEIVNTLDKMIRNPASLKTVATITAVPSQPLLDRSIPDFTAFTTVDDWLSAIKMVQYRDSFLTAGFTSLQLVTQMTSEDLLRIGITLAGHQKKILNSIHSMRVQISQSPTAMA
Chain of EPHB2 (P29323 whole entry, looked up): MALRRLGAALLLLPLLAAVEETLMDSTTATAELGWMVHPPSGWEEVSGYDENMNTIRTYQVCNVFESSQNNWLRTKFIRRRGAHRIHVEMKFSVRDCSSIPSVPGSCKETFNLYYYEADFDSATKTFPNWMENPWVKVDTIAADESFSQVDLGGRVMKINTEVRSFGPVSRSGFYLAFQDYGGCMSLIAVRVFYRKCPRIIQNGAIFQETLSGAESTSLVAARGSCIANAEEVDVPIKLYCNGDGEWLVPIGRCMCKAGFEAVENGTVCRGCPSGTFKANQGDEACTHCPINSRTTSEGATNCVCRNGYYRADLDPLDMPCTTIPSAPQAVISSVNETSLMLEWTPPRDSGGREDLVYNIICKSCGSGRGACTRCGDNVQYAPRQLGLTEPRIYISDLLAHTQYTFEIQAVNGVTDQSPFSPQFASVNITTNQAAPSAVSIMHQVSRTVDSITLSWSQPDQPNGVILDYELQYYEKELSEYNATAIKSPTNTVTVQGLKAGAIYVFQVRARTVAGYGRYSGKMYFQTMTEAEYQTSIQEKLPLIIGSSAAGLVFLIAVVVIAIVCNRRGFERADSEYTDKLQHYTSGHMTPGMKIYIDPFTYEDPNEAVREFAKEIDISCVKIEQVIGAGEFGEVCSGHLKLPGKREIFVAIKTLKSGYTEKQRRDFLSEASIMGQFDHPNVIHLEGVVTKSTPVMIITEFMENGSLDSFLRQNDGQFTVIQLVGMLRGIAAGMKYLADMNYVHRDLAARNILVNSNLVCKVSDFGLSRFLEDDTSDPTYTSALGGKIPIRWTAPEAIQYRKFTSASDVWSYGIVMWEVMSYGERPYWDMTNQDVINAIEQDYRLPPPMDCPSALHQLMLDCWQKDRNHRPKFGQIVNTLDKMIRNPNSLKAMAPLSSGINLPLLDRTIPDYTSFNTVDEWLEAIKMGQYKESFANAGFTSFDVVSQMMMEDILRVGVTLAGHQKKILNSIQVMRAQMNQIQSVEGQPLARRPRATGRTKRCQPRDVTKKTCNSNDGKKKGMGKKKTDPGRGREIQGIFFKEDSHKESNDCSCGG

| SH2 binding enrichment (Grb2 SH2) | SH2 binding enrichment (SHP2-C SH2) | SH2 binding enrichment (c-Src SH2) | Sequence | phosphorylation enrichment (AncSZ) | phosphorylation enrichment (EPHB1) | phosphorylation enrichment (EPHB2) | phosphorylation enrichment (FGFR1) | phosphorylation enrichment (FGFR3) | phosphorylation enrichment (Fer (mouse)) | phosphorylation enrichment (Fes) | phosphorylation enrichment (Fyn) | phosphorylation enrichment (Hck) | phosphorylation enrichment (Jak2) | phosphorylation enrichment (MERTK) | phosphorylation enrichment (c-Abl (mouse)) | phosphorylation enrichment (c-Src) |
| --- | --- | --- | --- | --- | --- | --- | --- | --- | --- | --- | --- | --- | --- | --- | --- | --- |
| 1.14 | 1.39 | 1.18 | HMRLRYLAAEE [CEP120_Y884_Q879H] | 1.22 | 0.587 | 0.552 | 0.412 | 0.939 | 0.75 | 1.89 | 0.722 | 0.53 | 1.03 | 0.452 | 1.3 | 0.659 |
| 0.813 | 0.677 | 7.32 | HPYNSYTYPRL [PAK5_Y316_S312P] | 1.2 | 0.731 | 0.531 | 0.998 | 0.962 | 0.674 | 0.875 | 0.968 | 0.984 | 0.429 | 2.57 | 0.374 | 1.3 |
| 1.64 | 1.79 | 1.29 | HQKKPYCHAHN [NRAP_Y53] | 1.82 | 1.08 | 0.8 | 0.983 | 2.09 | 1.85 | 1.62 | 0.828 | 1.05 | 3.5 | 0.623 | 2.3 | 0.591 |
| 0.939 | 0.751 | 0.631 | HRNGMYGLHQD [SGSH_Y89_Q85R] | 0.515 | 0.39 | 0.51 | 0.485 | 0.421 | 0.432 | 0.428 | 0.49 | 0.294 | 0.626 | 0.396 | 0.502 | 0.389 |
| 0.699 | 0.494 | 0.481 | HSFNSYTFPRL [PAK5_Y316_YF] | 1.78 | 0.802 | 0.629 | 0.59 | 0.958 | 0.489 | 1.74 | 0.407 | 0.525 | 1.31 | 0.55 | 0.849 | 0.374 |
| 0.925 | 0.563 | 0.601 | HSGIYYKPESL [L2HGDH_Y103] | 1.59 | 6.97 | 6.24 | 5.66 | 4.95 | 0.613 | 0.984 | 4.78 | 6.44 | 2.35 | 9.79 | 27.1 | 3.78 |
| 0.607 | 0.515 | 0.467 | ICFSDYVEVAD [PHACTR1_Y525_R521C] | 2.01 | 1.81 | 1.42 | 2.34 | 2.26 | 0.609 | 1.55 | 0.555 | 0.698 | 1.28 | 0.459 | 0.985 | 0.549 |
| 0.615 | 0.57 | 0.471 | IDDLEYLHSQG [STK11_Y166_G163D] | 1.22 | 0.638 | 0.777 | 0.676 | 0.737 | 0.61 | 1.24 | 0.581 | 0.531 | 0.865 | 0.572 | 0.636 | 0.578 |
| 0.775 | 0.868 | 0.713 | IDPYIYTPFGS [CYP3A4_Y432] | 1.43 | 0.702 | 0.701 | 2.44 | 1.66 | 1.9 | 0.956 | 7.45 | 5.71 | 2.38 | 3.67 | 0.865 | 6.67 |
| 0.803 | 0.666 | 0.539 | IEDNEYTAREG [HCK_Y411] | 1.56 | 0.637 | 0.491 | 0.722 | 0.759 | 0.515 | 1.33 | 0.576 | 0.588 | 1.33 | 0.519 | 1.08 | 0.67 |
| 0.654 | 0.602 | 0.354 | IEELTYVIKQD [STX5_Y137_I138V] | 1.23 | 0.643 | 0.659 | 0.515 | 0.954 | 0.54 | 1.26 | 0.494 | 0.528 | 1.18 | 0.363 | 0.705 | 0.691 |
| 0.948 | 0.438 | 0.492 | IFETDYFQKGG [INSR_Y1189_R1191Q_YF] | 1.24 | 0.421 | 0.401 | 0.468 | 0.876 | 0.358 | 1.01 | 0.502 | 0.473 | 0.981 | 0.386 | 0.662 | 0.492 |
| 1.93 | 1.86 | 1.12 | IHFAIYFLKFS [ARMC9_Y107_L108F_YF] | 0.835 | 0.473 | 0.576 | 0.441 | 0.674 | 0.485 | 0.956 | 0.448 | 0.561 | 0.636 | 0.406 | 0.636 | 0.434 |
| 0.76 | 0.77 | 0.543 | IIWDSYTTNKV [GNB1_Y85] | 1.2 | 0.498 | 0.598 | 0.489 | 0.729 | 0.665 | 1.21 | 0.46 | 0.482 | 0.863 | 0.356 | 0.687 | 0.395 |
| 6.83 | 0.713 | 4.57 | IKGNMYYENSY [EGFR_Y112_R108K] | 0.746 | 0.469 | 0.583 | 0.535 | 0.641 | 0.609 | 0.874 | 0.503 | 0.462 | 0.591 | 0.946 | 0.632 | 0.54 |
| 2 | 1.79 | 1.22 | IKKLIYVFLVI [JAGN1_Y42_H44Y_YF] | 0.884 | 0.556 | 0.547 | 0.716 | 0.797 | 0.454 | 1.1 | 0.462 | 0.393 | 0.736 | 0.547 | 0.701 | 0.424 |
| 1.08 | 1.01 | 0.706 | IKNSGYISRYL [EIF2AK3_Y585] | 0.558 | 0.443 | 0.406 | 0.513 | 0.531 | 0.376 | 0.711 | 0.4 | 0.33 | 0.538 | 0.404 | 0.558 | 0.448 |
| 0.743 | 0.364 | 0.415 | INNIDYYKKTT [FGFR2_Y656] | 0.808 | 0.461 | 0.506 | 0.524 | 0.473 | 0.334 | 0.876 | 0.425 | 0.486 | 0.618 | 0.501 | 0.627 | 0.426 |

The remaining lines, values behind:

| Sequence | SH2 binding enrichment (Grb2 SH2) | SH2 binding enrichment (SHP2-C SH2) | SH2 binding enrichment (c-Src SH2) | phosphorylation enrichment (AncSZ) | phosphorylation enrichment (EPHB1) | phosphorylation enrichment (EPHB2) | phosphorylation enrichment (FGFR1) | phosphorylation enrichment (FGFR3) | phosphorylation enrichment (Fer (mouse)) | phosphorylation enrichment (Fes) | phosphorylation enrichment (Fyn) | phosphorylation enrichment (Hck) | phosphorylation enrichment (Jak2) | phosphorylation enrichment (MERTK) | phosphorylation enrichment (c-Abl (mouse)) | phosphorylation enrichment (c-Src) |
| --- | --- | --- | --- | --- | --- | --- | --- | --- | --- | --- | --- | --- | --- | --- | --- | --- |
| HLVLNYGVCFC [JAK2_Y613_V617F] | 0.884 | 1.15 | 0.757 | 2.91 | 1.67 | 2.33 | 1.2 | 1.77 | 0.982 | 2.32 | 1.11 | 1.04 | 1.53 | 0.575 | 1.29 | 0.914 |
| HQEPVYSVAFS [TBL1X_Y509] | 1.08 | 0.856 | 0.533 | 4.16 | 25.8 | 31.1 | 4.88 | 3.89 | 24.1 | 2.74 | 15.6 | 14.2 | 0.688 | 14.5 | 30.7 | 9.13 |
| HRGFLYLAIEY [TEK_Y899_Y897F] | 1.15 | 0.77 | 0.45 | 1.5 | 0.986 | 0.541 | 0.549 | 0.891 | 0.791 | 1.76 | 0.54 | 0.743 | 1.49 | 0.703 | 1.47 | 0.541 |
| HRGSLYLAIEY [TEK_Y899_Y897S] | 0.646 | 0.501 | 0.375 | 1.87 | 0.819 | 0.776 | 0.581 | 1.3 | 0.853 | 2.15 | 0.58 | 0.798 | 2.2 | 0.834 | 2.14 | 0.734 |
| HSFQCYGRNEA [ENTPD3_Y262] | 0.945 | 0.82 | 0.529 | 1.23 | 0.875 | 1.04 | 0.761 | 1.18 | 0.759 | 1.28 | 0.711 | 0.797 | 0.594 | 0.585 | 0.736 | 0.417 |
| HSRTRYERNIE [F2_Y434] | 1.31 | 1.37 | 0.752 | 1.08 | 0.851 | 0.531 | 0.835 | 0.663 | 1.14 | 0.986 | 0.465 | 0.766 | 0.742 | 0.763 | 0.929 | 0.683 |
| IDLEKYKLLPE [DHFR_Y157] | 0.844 | 0.718 | 0.486 | 0.956 | 0.528 | 0.738 | 0.546 | 0.683 | 0.51 | 1.2 | 0.511 | 0.433 | 0.92 | 0.484 | 0.775 | 0.39 |
| IDPFIYTPFGS [CYP3A4_Y432_YF] | 0.861 | 1.06 | 0.604 | 0.927 | 0.686 | 0.549 | 0.584 | 0.779 | 1.67 | 1.12 | 6.96 | 5.82 | 0.73 | 2.86 | 0.773 | 6.49 |
| IENKLYGMSDS [RET_Y1062_P1067S] | 0.706 | 0.663 | 0.451 | 0.805 | 0.464 | 0.524 | 0.484 | 0.511 | 0.646 | 0.948 | 0.438 | 0.543 | 1.08 | 0.547 | 0.678 | 0.614 |
| IEPVIDVVQRR [ANOS1_Y217_Y217D] | 0.848 | 0.517 | 0.608 | 1.02 | 0.379 | 0.566 | 0.393 | 0.592 | 0.354 | 0.98 | 0.39 | 0.459 | 0.638 | 0.36 | 0.624 | 0.258 |
| IGRGSYAKVLL [PRKCZ_Y263] | 0.996 | 11.5 | 5.41 | 0.611 | 0.363 | 0.367 | 0.348 | 0.394 | 0.375 | 0.545 | 0.384 | 0.419 | 0.458 | 0.452 | 0.468 | 0.34 |
| IGSHAYGDQFR [IDH1_Y135_R132S_YF] | 0.892 | 0.96 | 0.425 | 0.527 | 0.32 | 0.389 | 0.518 | 0.51 | 0.394 | 0.556 | 0.464 | 0.498 | 0.477 | 0.377 | 0.363 | 0.353 |
| IKSSIYDNRNE [ARAP2_Y380_K384N] | 0.682 | 0.593 | 0.608 | 0.505 | 0.413 | 0.502 | 0.443 | 0.388 | 0.33 | 0.584 | 0.464 | 0.696 | 0.466 | 0.405 | 0.397 | 0.399 |
| ILGRFYERGSI [PAX5_Y73_T75R_YF] | 0.71 | 1.16 | 0.575 | 0.651 | 0.392 | 0.476 | 0.413 | 0.517 | 0.398 | 0.674 | 0.483 | 0.486 | 0.662 | 0.395 | 0.532 | 0.451 |
| IRRWVYPLTPE [EIF2B5_Y319] | 0.811 | 0.716 | 0.517 | 0.934 | 0.406 | 0.522 | 0.451 | 0.613 | 0.559 | 0.943 | 0.514 | 0.481 | 0.732 | 0.476 | 0.464 | 0.437 |
